From US20220403028A1 (NUMAB THERAPEUTICS, published 2022)
Where a chain is given by its changes, count along the chain named.

B1: PRO389 (IL23R×CD3 1st gen Numab) (bispecific antibody)
chain: DIQMTQSPSSLSASVGDRVTITCQASENIYSFLAWYQQKPGKAPKLLIYSASKLAAGVPSRFSGSGSGTDFTLTISSLQPEDFATYYCQQTNRYSNPDIYNVFGTGTKVTVLGGGGGSEVQLVESGGGLVQPGGSLRLSCAASGFPLSSYAMIWVRQAPGKGLEWIGMILRAGNIYYASWVKGRFTISRDNSKNTVYLQMNSLRAEDTAVYYCARRHYNREGYPIGIGDLWGQGTLVTVSSGGGGSGGGGSGGGGSGGGGSDIQMTQSPSSLSASVGDRVTITCQSSESVYNNKRLSWYQQKPGKAPKLLIYTASSLASGVPSRFSGSGSGTDFTLTISSLQPEDFATYYCQGEFTCSNADCFTFGTGTKVTVLGGGGGSEVQLVESGGGLVQPGGSLRLSCAASGIDFNSNYYMCWVRQAPGKGLEWIGCIYVGSHVNTYYANWAKGRFTISRDNSKNTVYLQMNSLRAEDTAVYYCATSGSSVLYFKFWGQGTLVTVSS
B2: 28-21-D09-sc18 (scFv)
scFv: DIQMTQSPSSLSASVGDRVTITCQSSQSVFSNNYLAWYQQKPGQSPKRLIYSASTLASGVPSRFSGSGSGTHFTLTISSLQPEDFATYYCLGSYACSSADCYVFGTGTKVTVLGGGGGSGGGGSGGGGSGGGGSEVQLVESGGGLVQPGGSLRLSCAASGFSLSSYDMSWVRQAPGKGLEWIGASYASGPTYYASWAKGRFTISRDNSKNTVYLQMNSLRAEDTAVYYCARGGWTGTSHSNIWGQGTLVTVSS
B3: 28-21-D09-sc15 (scFv)
scFv: B2 scFv with V226T, Y228F
B4: 28-21-D09-sc19 (scFv)
scFv: B2 scFv with H72D
B5: 28-21-D09-sc16 (scFv)
scFv: B2 scFv with H72D, V226T, Y228F
B6: 28-21-D09-sc04 (scFv)
scFv: B2 scFv with Y38F, H72D, E180A, V226T, Y228F

Biological target: human CD3ε on T cells (human, UniProt P07766 23-207)
Experiment: cell-based or functional assay

Chain of human CD3ε on T cells (P07766 23-207 limits assumed): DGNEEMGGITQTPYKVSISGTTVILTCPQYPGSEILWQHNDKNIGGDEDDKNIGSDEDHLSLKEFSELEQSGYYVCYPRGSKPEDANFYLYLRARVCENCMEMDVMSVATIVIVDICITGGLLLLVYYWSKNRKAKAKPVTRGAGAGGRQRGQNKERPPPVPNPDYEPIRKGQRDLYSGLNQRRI

| Binder | EC50 of specific target cell lysis (IL-23R-expressing CHO-K1 target cells, human PBMCs, flow cytometry cytotoxicity assay) [nM] |
| --- | --- |
| B1 | 0.0053 |

Biological target: cynomolgus CD3ε (recombinant, coupled to the SPR chip) (cynomolgus (Macaca fascicularis)) (UniProt Q95LI5)
Experiment: SPR (Biacore T200), CD3ε amine-coupled to CM5 chip, scFv as analyte, 1:1 Langmuir fit

| Kd [nM] | Binder |
| --- | --- |
| 14.2 | B2 |
| 13.7 | B3 |
| 19.5 | B4 |
| 16.6 | B5 |
| 4.78 | B6 |
